Measurements reported in publication PMC3154745 (Chembiochem : a European journal of chemical biology, 2011).
Changes are numbered by the printed parent chain. In names and notes the source's numbering stands.

Test system: HP1a (homodimerization)
Test: Equilibrium analytical ultracentrifugation, HP1a self-association
Settings: equilibrium AUC

B1: W200A: HP1a-CSD point mutant W200A (protein)
chain: EQDTIPVSGSTGFDRGLEAEKILGASDNNGRLTFLIQFKGVDQAEMVPSSVANEKIPRMVIHFYEERLSAYSDNED
modifications: left off: His6 (…), N-terminal, kept | two lysines for solubility, C-terminal, kept
With B1 the “weakening of the dimerization (dissociation) constant relative to wild-type CSD” value was “two-fold weakening”.

B2: S199ES202E: HP1a-CSD phosphorylation mimic, S199E and S202E double mutant (protein)
chain: B1 chain with S69E, A70W, S72E
modifications: left off: His6 (…), N-terminal, kept | two lysines for solubility, C-terminal, kept
For B2, the “weakening of the dimerization (dissociation) constant relative to wild-type CSD” value was 6 fold.
